Patent publication US20230139700A1

Columns and labels:
[1] = target: human OX40 on cells (human) (UniProt P43489); assay: flow cytometry on human PBMCs activated with anti-CD3/CD28 beads, 50 nM antibody
[2] = target: human OX40 on cells (human) (UniProt P43489); assay: cell-based or functional assay

human OX40 on cells (human), sequence (P43489 29-277): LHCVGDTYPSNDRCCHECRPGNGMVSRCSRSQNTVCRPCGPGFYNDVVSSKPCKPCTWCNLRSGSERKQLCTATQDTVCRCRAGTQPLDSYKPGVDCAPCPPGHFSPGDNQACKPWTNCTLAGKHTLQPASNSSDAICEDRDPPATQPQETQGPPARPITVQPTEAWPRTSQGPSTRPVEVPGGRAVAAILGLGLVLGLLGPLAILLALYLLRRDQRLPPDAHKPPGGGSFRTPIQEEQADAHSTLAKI

## IgG1 (antibody)
[1]
  Binding percentage %: 23%
  MFI (ten thousand): 7000

## OX40L (ligand)
[2]
  Luciferase IFM, Jurkat-hOX40-NFκB-2 cells: 59000
